# Measured values reported in the DeepSol protein solubility set.
# Assay: soluble on expression in E. coli; label from the status in PepcDB or PDB records
row,Sequence,soluble on expression in E. coli
1,LKRYIAGLACAATAVLSAPALASTAHAQAADPISALKSQFSSGRGVNFVDTTKTQGPQGNMVLAKRTGALQFGPSGISASDQTAQLRFKASDFEDLTEGEEDEDFSKFFRGLAKPERVVRIKNTTYVSGGVMGEFMPADKTWVRFPDGLLGFTGAMSQFVNVAEPATLKALLAHATKHGGTYSGKITFGELNKVSPWFRASLGAPTAKTAKIVVSWKLFLGSDRLAKRLVTTYSTAGSAESTVTVDTRYTGWGSKVTVKAPPADQVADLKDLEEGAETATSIPLLGN,soluble
2,LKSLKDVTDHKKVNANDEDYKYIDMWKRLYQGHYAEWHNLNYEHNGNPVNRRQLSMNLPKVTAKYMSKLLFNEKVKINIDDKAAEEFVLNVLKTNGFTKNMERYIEYGEAMGGFVIKVYHDGNKNVKISFATADCMYPLSNDSENVDECVIANSFHKNNKYYKLLEWNEWKGKEEKVYTITTELYQSDNPDELGGEVSLKLLFNDIEPVVPLPPLTRPTFIYIKPNIANNKNLTSPLGISIYANALDTLKTLDLMFDSYYQEFKLGKKKVLVPSSFVKTAVNLDGSTTQYFDSTDEAFFLYQGDQDADGKSVKDISVEIRSTEFIESINAMLRIYAMQVGLSAGTFTFDENGLKTATEVVSEKSETYQTKNSHSQLIEQGIKEMIVSILEVGKFIEAYSGDVVELDTITVDFDDSIAQDEDTTINRYTTAKNQGMIPLKIALQRAWNITDAEAEEWKEEIEKDARAEIPG,not soluble
3,LLQLNIQNFAIVRSLDIDWQSGMTTITGETGAGKSIAIDALGLCLGDRATTNVVRPNCKKADLAATFEIKKNKMARAWLKQHELVSEHDSECILRRVISAEGRSKSYINGSQVPLVQLKEIGQLLINIHGQHDHQLIVKANQQCRLLDNYANHTPLLSAVKHYAQQWNKLNKELEMLQQSKQQREAEQQLIQYQVTELDEFSLQ,not soluble
4,LLRMHESLARRQLAEVERLDLVRQVRELIGELLVDGGATLEQVAARLGMPARRLRERLAMAGVRFNDLVTDYRCRLAKE,not soluble
5,LLSPPIALKPLDSSAKWRIIYWNPNGCDKTCLKQLNMLGRVRLSFGRKLYQVDEWLLLSNKDSLIAEELKPILKEQDIHVAALSLTEMSKLSTLYPEAKIFIANPDNYLILSYQPGCNPGDIYKDLKLLLNTTE,not soluble
6,LPAGLYFVGTPIGSARDITLRALDVLASAEVIAAEDTRSLRHLLDIHGVPLDGRRVLAYHDHSGAGAQARLLEALAEGKSVAYASEAGMPLIADPGFELSRAAAEAGHMVTCAPGPS,not soluble
7,LPRELRPLMKKPLGILYRGKGRDTIEKFAGELSSPTKLISVGDVTTFHLLEAGIIPDICIVDDRTKRKPVSSDVSVRNRDKVYEEVSVDNPAGIITDELIRTLCEAFASEKLLRIFVRGEEDLATLPVILLAPPGSVVLYGQPDEGVVFVEVTEKKKEEIRALFEKLISK,not soluble
8,LQASVNLFPTISVAPSADTSSERSIYKARFLENVAAAETEKQVALAQGRAETLAGAMPNEAGGHPDARQLWDSPETAPAARTPQSPAPCVLLRAQRSLAPEPKEPLIPASPKAEPIWELPTRAPRLSIGDLDFSDLGEDEDQDMLNVESVEAGKDI,not soluble
9,LRGFIIGRFQPFHKGHLEVIKKIAEEVDEIIIGIGSAQKSHTLENPFTAGERILMITQSLKDYDLTYYPIPIKDIEFNSIWVSYVESLTPPFDIVYSGNPLVRVLFEERGYEVKRPEMFNRKEYSGTEIRRRMLNGEKWEHLVPKAVVDVIKEIKGVERLRKLAQTDK,soluble
10,LRVSDGIAGKMTVLALKNTDERLRADKSVSVGFVLAALMWPELERHWKSNLQQGLKPAPALSDAINTMRETVERGWGVPQRFSATMREIWMFQPQFENRKGARPHKLFAQARFRAAYDFLLLRAETGNADRALAEWWTAFQTASTEQRSEMTKNEAAARHEKNEGQAKKRRRRRRKPKPKVVGTDWE,not soluble
11,LSKDILQLVGGEENVQRVIHCMTRLRFNLHDNAKADRSQLEQLPGVMGTNISGEQFQIIIGNDVPKVYQAIVRHSNLSDEKSAGSSSQKKNVLSAVFDVISG,not soluble
12,LSKGTRDRKNIYVSPEEMARQQRFIDEIKELNYRKEVKTGKKKLYCLNTFGCQMNEHDSEKLAGMLAEMGYAETDNVNESDLVIYNTCCVRENAELKVYGHLGMLKPLKNQKPDLVIAVCGCMMQQPEVVEHIKKTYSHVDLIFGTHNLYKFPELLYSAMDSQTTVVDVWDCDGQIAENVAIERKDGVKAWVTVMYGCNNFCTYCIVPYVRGRERSRSMDDILEEVRMLGRQGFKEITLLGQNVNSYGKDIGDGTSFAELIREVNKIPGIERIRFTTSHPKDLSDDLIYAMRDCEKVCEHLHLPFQAGSTRILKLMNRKYTKEDYINLVAKIKENIPDIALTTDIIVGFPGETEEDFSDTLDILEKVRFDNAYTFLYSKRTGTPAAKMEDQVPEEVKKERFQRLLETQNRISKEINDTFLGKVVEVLVEGVSKTNDKIFTGRTRGNKVVNFEADASLIGKLVNVRINTVKTWSLEGSIVR,soluble
13,LTLRAGREQNIPMNLSDSWAARRPVTARVSAAEAVLADLRDAITSGELSVGERLPSEASLAARHGVSRSVIREALRSCHALGLTETKSGLGTFVVSDSIARDLDFGNYAANELVEARPHVEIPAAGWAAQRHTAEDLAALRGLVDQMRDEDDPLVWVSLDAQFHAFIARTSRNRVFESVIVDIREALTRQSETLNLVAGRQQKSNDEHDRIVEGIASGSYDKAARAMAEHLDAVRVALESVVGEAGPDRRQ,not soluble
14,MAAACICQPNLLEINVSDGPLDMIRKKRKIQQPQLRPPLRENKCQPHFSVRKVNQSYIISLHKEITCQLIAEIVKQKLSRIWEKVYIPSYELISDKDGNQIYVEQSVDENRLTSEIMEKLDPNNIDIEAIEILFDDYHLELSRLTNGIIISSANDHFYREFSFNNIIDDNFKICGTSMSADSFDKIYGVMWIEVPFNGNGLQNDSAVNRVSTSHNQIEELNDIEQEIRAFNISRSNQESIIKKEVSRRLNGR,not soluble
15,MAAAGARPVELGFAESAPAWRLRSEQFPSKVGGRPAWLGAAGLPGPQALACELCGRPLSFLLQVYAPLPGRPDAFHRCIFLFCCREQPCCAGLRVFRNQLPRKNDFYSYEPPSENPPPETGESVCLQLKSGAHLCRVCGCLGPKTCSRCHKAYYCSKEHQTLDWRLGHKQACAQPDHLDHIIPDHNFLFPEFEIVIETEDEIMPEVVEKEDYSEIIGSMGEALEEELDSMAKHESREDKIFQKFKTQIALEPEQILRYGRGIAPIWISGENIPQEKDIPDCPCGAKRILEFQVMPQLLNYLKADRLGKSIDWGILAVFTCAESCSLGTGYTEEFVWKQDVTDTP,soluble
16,MAAAKVALTKRADPAELRTIFLKYASIEKNGEFFMSPNDFVTRYLNIFGESQPNPKTVELLSGVVDQTKDGLISFQEFVAFESVLCAPDALFMVAFQLFDKAGKGEVTFEDVKQVFGQTTIHQHIPFNWDSEFVQLHFGKERKRHLTYAEFTQFLLEIQLEHAKQAFVQRDNARTGRVTAIDFRDIMVTIRPHVLTPFVEECLVAAAGGTTSHQVSFSYFNGFNSLLNNMELIRKIYSTLAGTRKDVEVTKEEFVLAAQKFGQVTPMEVDILFQLADLYEPRGRMTLADIERIAPLEEGTLPFNLAEAQRQKASGDSARPVLLQVAESAYRFGLGSVAGAVGATAVYPIDLVKTRMQNQRSTGSFVGELMYKNSFDCFKKVLRYEGFFGLYRGLLPQLLGVAPEKAIKLTVNDFVRDKFMHKDGSVPLAAEILAGGCAGGSQVIFTNPLEIVKIRLQVAGEITTGPRVSALSVVRDLGFFGIYKGAKACFLRDIPFSAIYFPCYAHVKASFANEDGQVSPGSLLLAGAIAGMPAASLVTPADVIKTRLQVAARAGQTTYSGVIDCFRKILREEGPKALWKGAGARVFRSSPQFGVTLLTYELLQRWFYIDFGGVKPMGSEPVPKSRINLPAPNPDHVGGYKLAVATFAGIENKFGLYLPLFKPSVSTSKAIGGGP,not soluble
